The results in this text go back to the supplement of paper PMC10567573.

Sequences and labels used below:
B1: TRIB1 (parent)
chain: EIGTSDQIVPEYQEDSDISSFFC
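Also: lentivirally expressed fusions sorted by FACS into six bins by GFP to DsRed ratio, PSI derived from sequencing read proportions per bin multiplied by bin number.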

This series covers variants of B1. Nature of the series: protein stability index of a GFP-peptide fusion (GPS, HEK-293T) (PSI 1-6); higher = more stable. As to conditions: c terminus: native.
Turning to EIGTSDQIVPEYQEDSKISSFFC, the protein stability index amounted to 4.29.
With EIGTSDQIVPEYQEDSRISSFFC the figure was 3.48; with EIGTSDQIVPEYQEDSPISSFFC, 3.12; with ETGTSDQIVPEYQEDSDISSFFC, 2.75.
With EYGTSDQIVPEYQEDSDISSFFC, the protein stability index turned out to be 2.81.
On to ERGTSDQIVPEYQEDSDISSFFC, for which the protein stability index was 2.59.
With EGGTSDQIVPEYQEDSDISSFFC the figure was 3.58; with EIGTSDQIVPEGQEDSDISSFFC, 3.27; with EIGTSDQIVPELQEDSDISSFFC, 3.06.
Under EIGTSDQIVPEPQEDSDISSFFC stands 3.4; under EIGTSDQIVPEFQEDSDISSFFC, 3.07.
With EIGTSDQIVPEDQEDSDISSFFC the figure was 5.11.
For EIGTSDQIVPEYQEDSDIFSFFC, the protein stability index was determined as 1.99.
With EIGTSDQIVPEYQEDSDILSFFC, the protein stability index amounted to 2.32.
Under EIGTSDQIVPEYQEDSDIVSFFC stands 2.72.
With EIGTSDQIVPEYQEDSDIRSFFC the figure was 3.83; with HIGTSDQIVPEYQEDSDISSFFC, 1.97; with YIGTSDQIVPEYQEDSDISSFFC, 2.11.
Under QIGTSDQIVPEYQEDSDISSFFC stands 2.57.
As to GIGTSDQIVPEYQEDSDISSFFC, the protein stability index was 2.58.
Under NIGTSDQIVPEYQEDSDISSFFC stands 2.32; under PIGTSDQIVPEYQEDSDISSFFC, 3.11; under EIGTSDQIVPEYQEQSDISSFFC, 2.92.
With EIGTSDQIVPEYQELSDISSFFC, the protein stability index stood at 2.18.
Under EIGTSDQIVPEYQEVSDISSFFC stands 2.81.
With EIGTSDQIVPEYQENSDISSFFC the figure was 3.86.
Turning to EIGTSDQIVPEYQEHSDISSFFC, the protein stability index was found to be 3.28.
With EIGTSDQIDPEYQEDSDISSFFC the figure was 5.51; with EIGTSDQITPEYQEDSDISSFFC, 5.53; with EIGTSDQFVPEYQEDSDISSFFC, 5.17.
Under EIGTSDQIVPEYQEDSDISGFFC stands 3.23.
On to EIGTSDQIVPEYQEDSDISHFFC, for which the protein stability index was 3.57.
With EIGTSDQIVPEYQEDSDISTFFC the figure was 3.07.
With EIGTSDQIVPEYREDSDISSFFC the figure was 2.92; with EIGTSDQIVPEYWEDSDISSFFC, 1.72; with EIGTSDQIVPEYMEDSDISSFFC, 2.36.
Under EIGTSDQIVPEYHEDSDISSFFC stands 2.24; under EILTSDQIVPEYQEDSDISSFFC, 2.29; under EIYTSDQIVPEYQEDSDISSFFC, 2.38.
As to EIITSDQIVPEYQEDSDISSFFC, the protein stability index came out at 2.42.
In the case of EIKTSDQIVPEYQEDSDISSFFC, the protein stability index is 2.65.
Under EIETSDQIVPEYQEDSDISSFFC stands 2.97.
Under EIGTSDQIVPEYQEDSDISSFFG stands 3.67; under EIGTSDQIVPEYQEDSDISSFFM, 1.73; under EIGTSDQIVPEYQEDSDISSFFR, 4.18.
With EIGTSDQIVPEYQEDSDISSFFF the figure was 2.29; with EIGTSDQIVPEYQEDSDISSFFP, 3.44; with EIGTSDQIVPEYQEDSDISSFFK, 4.49.
Regarding EIGFSDQIVPEYQEDSDISSFFC, the protein stability index was 3.18.
With EIGYSDQIVPEYQEDSDISSFFC the figure was 3.1; with EIGDSDQIVPEYQEDSDISSFFC, 2.32; with EIGESDQIVPEYQEDSDISSFFC, 2.86.
Under EIGGSDQIVPEYQEDSDISSFFC stands 3.12.
Under EIGTSDKIVPEYQEDSDISSFFC stands 5.04.
As to EIGTSDYIVPEYQEDSDISSFFC, the protein stability index was 4.43.
With EIGTSDAIVPEYQEDSDISSFFC the figure was 5.23.
With EIGTSDFIVPEYQEDSDISSFFC the figure was 3.76.
Under EIGTSDDIVPEYQEDSDISSFFC stands 5.53; under EIGTSDTIVPEYQEDSDISSFFC, 5.64.
As for EIGTSDQIVPEYQEDRDISSFFC, the protein stability index turned out to be 4.11.
With EIGTSDQIVPEYQEDVDISSFFC the figure was 3.02; with EIGTSDQIVPEYQEDKDISSFFC, 3.5; with EIGTSDQIVPEYQEDADISSFFC, 3.03.
Under EIGTSDQIVPEYQEDLDISSFFC stands 2.65; under EIGTSDQIVPEYQEDCDISSFFC, 2.41.
Under EIGTSDQIVPEYQEDDDISSFFC stands 2.15; under EIGTSDQIVPEYQEDSDISSFWC, 1.98.
As to EIGTSDQIVPEYQEDSDISSFMC, the protein stability index came to 3.16.
Under EIGTSDQIVPEYQEDSDISSFCC stands 3.45; under EIGTSDQIVPEYQEDSDISSFVC, 3.88; under EIGTSDQIVCEYQEDSDISSFFC, 5.2.
With EIGTSDQIVWEYQEDSDISSFFC the figure was 4.52.
With EIGTSDQIVAEYQEDSDISSFFC the figure was 5.38; with EIGTSDQIVGEYQEDSDISSFFC, 4.82.
In the case of EIGTSDQIVREYQEDSDISSFFC, the protein stability index stood at 5.56.
Under EIGTSDQIVEEYQEDSDISSFFC stands 5.54.
With EIGTSDQIVLEYQEDSDISSFFC, the protein stability index worked out at 4.87.
With EIGTSDQIVPEYQNDSDISSFFC the figure was 2.94.
Under EIGTSDQIVPEYQHDSDISSFFC stands 3.56; under EIGTSDQIVPEYQCDSDISSFFC, 2.48; under EIGTSDQIVPEYQQDSDISSFFC, 3.37.
Under EIGTSDQIVPEYQEDSDQSSFFC stands 3.9; under EIGTSDQIVPEYQEDSDHSSFFC, 3.69.
For the variant EIGTSDQIVPEYQEDSDPSSFFC, the protein stability index was determined as 2.88.
Under EIGTSDQIVPEYQEDSDFSSFFC stands 2.91.
Take EIGTSDQIVPEYQEDSDGSSFFC: the protein stability index came to 3.6.
Under EIGTSDQIVPEYQEDSDDSSFFC stands 3.36.
With EIGTSDQIVPEYQEDSDWSSFFC the figure was 2.41; with EIGTSQQIVPEYQEDSDISSFFC, 5.04.
Regarding EIGTSHQIVPEYQEDSDISSFFC, the protein stability index was 4.9.
Under EIGTSAQIVPEYQEDSDISSFFC stands 4.92; under EIGTSNQIVPEYQEDSDISSFFC, 4.69; under EIGTSFQIVPEYQEDSDISSFFC, 4.14.
Under EIGTSLQIVPEYQEDSDISSFFC stands 4.45; under EIGTSSQIVPEYQEDSDISSFFC, 5.45; under EIGTSGQIVPEYQEDSDISSFFC, 5.55.
